In the supplement of paper PMC5998384:

Tests used:
HeLa Kyoto [1] = experiment: solubility in G1/S (NP-40 vs SDS abundance) (log2 ratio); higher = more soluble; conditions: cell cycle stage: G1/S
HeLa Kyoto [2] = experiment: melting temperature (median over replicates), in situ; higher = more thermally stable
HeLa Kyoto [3] = experiment: solubility change mitosis vs G1/S (difference of NP-40 vs SDS log2 ratios) (log2 ratio difference); higher = more soluble in mitosis
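Throughout, for melting temperature (median over replicates), in situ: HeLa Kyoto cells synchronized by double thymidine or nocodazole block, proteins quantified by TMT10plex mass spectrometry, three independent biological replicates.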
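Throughout, for solubility change mitosis vs G1/S (difference of NP-40 vs SDS log2 ratios): synchronized HeLa Kyoto cells (double thymidine block for G1/S, nocodazole release for mitosis), protein amounts in NP-40 versus SDS lysates quantified by mass spectrometry, three biological replicates.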
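Throughout, for solubility in G1/S (NP-40 vs SDS abundance): HeLa Kyoto cells arrested at G1/S by double thymidine block, proteins quantified by TMT10plex mass spectrometry in mild NP-40 versus SDS extracts, three biological replicates.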

HAUS7, sequence (chain, as listed by the source): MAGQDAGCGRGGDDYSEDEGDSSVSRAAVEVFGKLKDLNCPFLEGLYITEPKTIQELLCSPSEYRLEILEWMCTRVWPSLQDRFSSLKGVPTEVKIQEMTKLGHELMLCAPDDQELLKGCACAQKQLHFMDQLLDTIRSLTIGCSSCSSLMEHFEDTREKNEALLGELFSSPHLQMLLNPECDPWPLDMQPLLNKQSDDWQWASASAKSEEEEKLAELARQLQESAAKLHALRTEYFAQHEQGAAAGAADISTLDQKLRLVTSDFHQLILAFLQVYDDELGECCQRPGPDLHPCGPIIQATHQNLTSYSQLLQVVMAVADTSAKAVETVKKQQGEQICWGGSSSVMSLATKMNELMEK

| Substance | solubility in G1/S (log2) (HeLa Kyoto [1]) | melting temperature (HeLa Kyoto [2]; cell cycle stage: G1/S) | melting temperature (HeLa Kyoto [2]; cell cycle stage: mitosis) | solubility change mitosis (log2) (HeLa Kyoto [3]) |
| --- | --- | --- | --- | --- |
| MSLQSRLSGRLAQLRAAGQLLVPPRPRPGHLAGATRTRSSTCGPPAFLGVFGRRARTSAGVGAWGAAAVGRTAGVRTWAPLAMAAKVDLSTSTDWKEAKSFLKGLSDKQREEHYFCKDFVRLKKIPTWKEMAKGVAVKVEEPRYKKDKQLNEKISLLRSDITKLEVDAIVNAANSSLLGGGGVDGCIHRAAGPLLTDECRTLQSCKTGKAKITGGYRLPAKYVIHTVGPIAYGEPSASQAAELRSCYLSSLDLLLEHRLRSVAFPCISTGVFGYPCEAAAEIVLATLREWLEQHKDKVDRLIICVFLEKDEDIYRSRLPHYFPVA [MACROD1] | 0.246 | 50.6 °C | 51.1 °C | -0.147 |
| MKIGSGFLSGGGGTGSSGGSGSGGGGSGGGGGGGSSGRRAEMEPTFPQGMVMFNHRLPPVTSFTRPAGSAAPPPQCVLSSSTSAAPAAEPPPPPAPDMTFKKEPAASAAAFPSQRTSWGFLQSLVSIKQEKPADPEEQQSHHHHHHHHYGGLFAGAEERSPGLGGGEGGSHGVIQDLSILHQHVQQQPAQHHRDVLLSSSSRTDDHHGTEEPKQDTNVKKAKRPKPESQGIKAKRKPSASSKPSLVGDGEGAILSPSQKPHICDHCSAAFRSSYHLRRHVLIHTGERPFQCSQCSMGFIQKYLLQRHEKIHSREKPFGCDQCSMKFIQKYHMERHKRTHSGEKPYKCDTCQQYFSRTDRLLKHRRTCGEVIVKGATSAEPGSSNHTNMGNLAVLSQGNTSSSRRKTKSKSIAIENKEQKTGKTNESQISNNINMQSYSVEMPTVSSSGGIIGTGIDELQKRVPKLIFKKGSRKNTDKNYLNFVSPLPDIVGQKSLSGKPSGSLGIVSNNSVETIGLLQSTSGKQGQISSNYDDAMQFSKKRRYLPTASSNSAFSINVGHMVSQQSVIQSAGVSVLDNEAPLSLIDSSALNAEIKSCHDKSGIPDEVLQSILDQYSNKSESQKEDPFNIAEPRVDLHTSGEHSELVQEENLSPGTQTPSNDKASMLQEYSKYLQQAFEKSTNASFTLGHGFQFVSLSSPLHNHTLFPEKQIYTTSPLECGFGQSVTSVLPSSLPKPPFGMLFGSQPGLYLSALDATHQQLTPSQELDDLIDSQKNLETSSAFQSSSQKLTSQKEQKNLESSTGFQIPSQELASQIDPQKDIEPRTTYQIENFAQAFGSQFKSGSRVPMTFITNSNGEVDHRVRTSVSDFSGYTNMMSDVSEPCSTRVKTPTSQSYR [ZNF281] | -0.357 | 45.1 °C | 47.4 °C | 0.0949 |
| MFPLTEENKHVAQLLLNTGTCPRCIFRFCGVDFHAPYKLPYKELLNELQKFLETEKDELILEVMNPPPKKIRLQELEDSIDNLSQNGEGRISVSHVGSTASKNSNLNVCNVCLGILQEFCEKDFIKKVCQKVEASGFEFTSLVFSVSFPPQLSVREHAAWLLVKQEMGKQSLSLGRDDIVQLKEAYKWITHPLFSEELGVPIDGKSLFEVSVVFAHPETVEDCHFLAAICPDCFKPAKNKQSVFTRMAVMKALNKIKEEDFLKQFPCPPNSPKAVCAVLEIECAHGAVFVAGRYNKYSRNLPQTPWIIDGERKLESSVEELISDHLLAVFKAESFNFSSSGREDVDVRTLGNGRPFAIELVNPHRVHFTSQEIKELQQKINNSSNKIQVRDLQLVTREAIGHMKEGEEEKTKTYSALIWTNKAIQKKDIEFLNDIKDLKIDQKTPLRVLHRRPLAVRARVIHFMETQYVDEHHFRLHLKTQAGTYIKEFVHGDFGRTKPNIGSLMNVTADILELDVESVDVDWPPALDD [PUS10] | 0.0782 | 50.8 °C | 51.8 °C | -0.271 |
| MAAATIVHDTSEAVELCPAYGLYLKPITKMTISVALPQLKQPGKSISNWEVMERLKGMVQNHQFSTLRISKSTMDFIRFEGEVENKSLVKSFLACLDGKTIKLSGFSDILKVRAAEFKIDFPTRHDWDSFFRDAKDMNETLPGERPDTIHLEGLPCKWFALKESGSEKPSEDVLVKVFEKFGEIRNVDIPMLDPYREEMTGRNFHTFSFGGHLNFEAYVQYREYMGFIQAMSALRGMKLMYKGEDGKAVACNIKVSFDSTKHLSDASIKKRQLERQKLQELEQQREEQKRREKEAEERQRAEERKQKELEELERERKREEKLRKREQKQRDRELRRNQKKLEKLQAEEQKQLQEKIKLEERKLLLAQRNLQSIRLIAELLSRAKAVKLREQEQKEEKLRLQQQEERRRLQEAELRRVEEEKERALGLQRKERELRERLLSILLSKKPDDSHTHDELGVAHADLLQPVLDILQTVSSGCVSATTLHPLGGQPPAGAPKESPAHPEADGAPKSVNGSVAEEAPCKEVQSSCRVVPEDGSPEKRCPGGVLSCIPDNNQQPKGIPACEQNVSRKDTRSEQDKCNREPSKGRGRATGDGLADRHKRERSRARRASSREDGRPRKERRPHKKHAYKDDSPRRRSTSPDHTRSRRSHSKDRHRRERSRERRGSASRKHSRHRRRSERSRSRSPSRHRSTWNR [AKAP17A] | -1.06 | 47 °C | 49.2 °C | 0.521 |
| MSTGPTAATGSNRRLQQTQNQVDEVVDIMRVNVDKVLERDQKLSELDDRADALQAGASQFETSAAKLKRKYWWKNCKMWAIGITVLVIFIIIIIVWVVSS [VAMP3] | 0.0764 | – | 54.7 °C | -0.16 |
| MAQETNHSQVPMLCSTGCGFYGNPRTNGMCSVCYKEHLQRQNSSNGRISPPATSVSSLSESLPVQCTDGSVPEAQSALDSTSSSMQPSPVSNQSLLSESVASSQLDSTSVDKAVPETEDVQASVSDTAQQPSEEQSKSLEKPKQKKNRCFMCRKKVGLTGFECRCGNVYCGVHRYSDVHNCSYNYKADAAEKIRKENPVVVGEKIQKI [ZFAND6] | 0.396 | 56.7 °C | – | -0.182 |
| MWVCSTLWRVRTPARQWRGLLPASGCHGPAASSYSASAEPARVRALVYGHHGDPAKVVELKNLELAAVRGSDVRVKMLAAPINPSDINMIQGNYGFLPELPAVGGNEGVAQVVAVGSNVTGLKPGDWVIPANAGLGTWRTEAVFSEEALIQVPSDIPLQSAATLGVNPCTAYRMLMDFEQLQPGDSVIQNASNSGVGQAVIQIAAALGLRTINVVRDRPDIQKLSDRLKSLGAEHVITEEELRRPEMKNFFKDMPQPRLALNCVGGKSSTELLRQLARGGTMVTYGGMAKQPVVASVSLLIFKDLKLRGFWLSQWKKDHSPDQFKELILTLCDLIRRGQLTAPACSQVPLQDYQSALEASMKPFISSKQILTM [MECR] | 0.282 | 55 °C | 54.1 °C | -0.0123 |
| MKDPSRSSTSPSIINEDVIINGHSHEDDNPFAEYMWMENEEEFNRQIEEELWEEEFIERCFQEMLEEEEEHEWFIPARDLPQTMDQIQDQFNDLVISDGSSLEDLVVKSNLNPNAKEFVPGVKYGNI [PAIP2] | 0.197 | 50.5 °C | – | -0.113 |
| MNVALQELGAGSNMVEYKRATLRDEDAPETPVEGGASPDAMEVGKGASPFSPGPSPGMTPGTPRSSGLFWRVTCPHLRSISGLCSRTMVGFQKGTRQLLGSRTQLELVLAGASLLLAALLLGCLVALGVQYHRDPSHSTCLTEACIRVAGKILESLDRGVSPCEDFYQFSCGGWIRRNPLPDGRSRWNTFNSLWDQNQAILKHLLENTTFNSSSEAEQKTQRFYLSCLQVERIEELGAQPLRDLIEKIGGWNITGPWDQDNFMEVLKAVAGTYRATPFFTVYISADSKSSNSNVIQVDQSGLFLPSRDYYLNRTANEKVLTAYLDYMEELGMLLGGRPTSTREQMQQVLELEIQLANITVPQDQRRDEEKIYHKMSISELQALAPSMDWLEFLSFLLSPLELSDSEPVVVYGMDYLQQVSELINRTEPSILNNYLIWNLVQKTTSSLDRRFESAQEKLLETLYGTKKSCVPRWQTCISNTDDALGFALGSLFVKATFDRQSKEIAEGMISEIRTAFEEALGQLVWMDEKTRQAAKEKADAIYDMIGFPDFILEPKELDDVYDGYEISEDSFFQNMLNLYNFSAKVMADQLRKPPSRDQWSMTPQTVNAYYLPTKNEIVFPAGILQAPFYARNHPKALNFGGIGVVMGHELTHAFDDQGREYDKEGNLRPWWQNESLAAFRNHTACMEEQYNQYQVNGERLNGRQTLGENIADNGGLKAAYNAYKAWLRKHGEEQQLPAVGLTNHQLFFVGFAQVWCSVRTPESSHEGLVTDPHSPARFRVLGTLSNSRDFLRHFGCPVGSPMNPGQLCEVW [ECE2] | 0.0962 | – | 50.7 °C | -0.189 |
| MRDYDEVTAFLGEWGPFQRLIFFLLSASIIPNGFTGLSSVFLIATPEHRCRVPDAANLSSAWRNHTVPLRLRDGREVPHSCRRYRLATIANFSALGLEPGRDVDLGQLEQESCLDGWEFSQDVYLSTIVTEWNLVCEDDWKAPLTISLFFVGVLLGSFISGQLSDRFGRKNVLFVTMGMQTGFSFLQIFSKNFEMFVVLFVLVGMGQISNYVAAFVLGTEILGKSVRIIFSTLGVCIFYAFGYMVLPLFAYFIRDWRMLLVALTMPGVLCVALWWFIPESPRWLISQGRFEEAEVIIRKAAKANGIVVPSTIFDPSELQDLSSKKQQSHNILDLLRTWNIRMVTIMSIMLWMTISVGYFGLSLDTPNLHGDIFVNCFLSAMVEVPAYVLAWLLLQYLPRRYSMATALFLGGSVLLFMQLVPPDLYYLATVLVMVGKFGVTAAFSMVYVYTAELYPTVVRNMGVGVSSTASRLGSILSPYFVYLGAYDRFLPYILMGSLTILTAILTLFLPESFGTPLPDTIDQMLRVKGMKHRKTPSHTRMLKDGQERPTILKSTAF [SLC22A5] | 0.228 | 59.7 °C | 56.9 °C | -0.137 |
| MAFWCQRDSYAREFTTTVVSCCPAELQTEGSNGKKEVLSGFQVVLEDTVLFPEGGGQPDDRGTINDISVLRVTRRGEQADHFTQTPLDPGSQVLVRVDWERRFDHMQQHSGQHLITAVADHLFKLKTTSWELGRFRSAIELDTPSMTAEQVAAIEQSVNEKIRDRLPVNVRELSLDDPEVEQVSGRGLPDDHAGPIRVVNIEGVDSNMCCGTHVSNLSDLQVIKILGTEKGKKNRTNLIFLSGNRVLKWMERSHGTEKALTALLKCGAEDHVEAVKKLQNSTKILQKNNLNLLRDLAVHIAHSLRNSPDWGGVVILHRKEGDSEFMNIIANEIGSEETLLFLTVGDEKGGGLFLLAGPPASVETLGPRVAEVLEGKGAGKKGRFQGKATKMSRRMEAQALLQDYISTQSAKE [AARSD1] | 0.18 | 49.8 °C | 49.9 °C | -0.0164 |
| MADKPDMGEIASFDKAKLKKTETQEKNTLPTKETIEQEKRSEIS [TMSB10] | -1.37 | 53.8 °C | – | 0.336 |
| HAUS7 | 0.51 | 50.7 °C | – | -0.0535 |
| MGKEKTHINIVVIGHVDSGKSTTTGHLIYKCGGIDKRTIEKFEKEAAEMGKGSFKYAWVLDKLKAERERGITIDISLWKFETSKYYVTIIDAPGHRDFIKNMITGTSQADCAVLIVAAGVGEFEAGISKNGQTREHALLAYTLGVKQLIVGVNKMDSTEPPYSQKRYEEIVKEVSTYIKKIGYNPDTVAFVPISGWNGDNMLEPSANMPWFKGWKVTRKDGNASGTTLLEALDCILPPTRPTDKPLRLPLQDVYKIGGIGTVPVGRVETGVLKPGMVVTFAPVNVTTEVKSVEMHHEALSEALPGDNVGFKVKNVSVKDVRRGNVAGDSKNDPPMEAAGFTAQVIILNHPGQISAGYAPVLDCHMAHIACKFAELKEKIDRRSGKKLEDGPKFLKSGDAAIVDMVPGKPMCVESFSDYPPLGRFAVRDMRQTVAVGVIKAVDKKAAGAGKVTKSAQKAQKAK [EEF1A1P5] | 0.301 | 52.4 °C | 52.4 °C | -0.0239 |
| MTDRYTIHSQLEHLQSKYIGTGHADTTKWEWLVNQHRDSYCSYMGHFDLLNYFAIAENESKARVRFNLMEKMLQPCGPPADKPEEN [SF3B5] | -0.73 | 52.7 °C | 51.1 °C | 0.221 |
